Assay results: patent US20130217865A1 (VIVENTIA BIOTECHNOLOGIES, published 2013)
Where no end group is shown, it is not given here. The star is where a group is joined. Biotin = O=C1N[C@H]2[C@H](CS[C@H]2CCCCC(=O)*)N1

T1: Peptide 3: Biotin-ATNMDSSHSIT (human)
T1 peptide: Biotin-ATNMDSSHSIT

B1: Peptide 1: Biotin-STDRIPATNMD (peptide)
peptide: Biotin-STDRIPATNMD
B2: Negative control peptide: Biotin-AVEDRKPSGLN (peptide)
peptide: Biotin-AVEDRKPSGLN
B3: VB1-008 monoclonal antibody (antibody, human IgG1, V domains shown)
VH: QVQLQELGPRLVRPSQTLILTCTVSGGSVSGDEYYWSWLRQTPGKGLEWIGYMSYRGSSYYSPSLQSRVTIAVDRSKNEFSLKLTSVTAADAAVYFCARKYCGGDCRSGFDIWGRGTMVTVAS
VL: YELTQPPSVSVSPGQKAFITCSGDNLGNKYVCWYQQKPGQSPVLVIYEDTKRPSGIPERFSASNSGNTATLTISGTQPIDEADYYCQAWDSRTEIFGTGTKVTVLS
notes: also called 17P2/C12

How the values were obtained:
[1] = target: B3; assay: peptide competition, flow cytometry on MDA-MB-435S cells
[2] = target: B1; assay: ELISA on peptide-coated plates
Description: (§1) Peptide solutions were diluted 1-in-100 with Hank's buffered saline solution (HBSS) containing 0.5% formaldehyde. 10Q̂iL of diluted peptide solution was distributed to each well in a 96-well plate. The plates were incubated at room temperature for 1 hour. The supernatant was removed and the plates were placed uncovered in a 37° C. incubator for 16-18 hours. The peptide-coated plates were placed in plastic bags and stored at 2-8° C. until required.
(§2) Following overnight incubation of the peptide-coated plates, 300 μL of wash buffer (PBS containing 0.5% Tween20) was manually added to each plate, with the help of a repeator pipette equipped with an 8-channel adaptor. The contents of the plates were discarded; the plates were inverted and patted on 3-4 inches of paper towel to remove excess liquid. The above steps were repeated two more times.
(§3) The plates were washed as previously described with the wash buffer (PBS containing 0.5% Tween 20). The plates were incubated with 1:6000 dilution of anti-human IgG-HRP for one hour at room temperature. The plates were washed as previously described. 100 μL of TMB substrate (TMB peroxidase substrate KPL cat #50-76-00) was added to each well and incubated for 5-10 minutes in the dark. The reaction was terminated by adding 100 μL of 1M phosphoric acid to each well. The optical density was measured at 450 nm using an ELISA plate reader.

[3] = target: B2; assay: ELISA on peptide-coated plates
Description: as §1, §2, §3

[4] = target: T1, Peptide 3: Biotin-ATNMDSSHSIT; assay: ELISA on peptide-coated plates, 75 µg/mL VB1-008
Description: as §1, §3

Binder	binding result [1]	binding result [2]	binding result [3]	binding result [4]
B1	no binding			
B2	no binding			
B3		no binding (tested: 75 µg/mL VB1-008)	no binding (tested: 75 µg/mL VB1-008)	binds
